Literature values as cited in PMC3022782.

Biological target: β sliding clamp rim (Escherichia coli) (UniProt P0A988)
Chain of UniProt P0A988 (P0A988 whole entry): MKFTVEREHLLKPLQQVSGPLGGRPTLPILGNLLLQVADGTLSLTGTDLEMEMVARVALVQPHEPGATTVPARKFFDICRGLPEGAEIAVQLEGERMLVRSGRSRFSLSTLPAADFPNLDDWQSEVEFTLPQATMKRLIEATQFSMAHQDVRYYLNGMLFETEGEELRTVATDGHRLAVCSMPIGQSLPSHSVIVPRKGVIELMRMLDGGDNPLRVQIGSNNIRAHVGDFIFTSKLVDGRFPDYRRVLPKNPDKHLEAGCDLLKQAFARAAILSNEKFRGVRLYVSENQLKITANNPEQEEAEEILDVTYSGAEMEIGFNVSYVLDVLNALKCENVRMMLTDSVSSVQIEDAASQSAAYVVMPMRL

Q: For Pol IV (from UniProt Q47155), which Kd is on record?
A: The Kd was 1 µM.
